In the supplement of paper PMC10724198:
± gives the standard deviation of the averaged measurements.

Test system: Saccharomyces cerevisiae
Assay: protein stability index of tFT-peptide fusion (C-terminal peptide) (PSI (0-1 scale)); higher = more stable (slower turnover)
Conditions: genetic background: wild type; temperature: 30 C
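Note: PSI is a weighted mean of sequencing reads over stability bins, variants kept only with over 10 reads, mCherry proximal and sfGFP distal, peptide attached via GGGS linker.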

TGSLLWGCFALL
protein stability index: 0.623 ± 0.054

TGVSTRVTHTAP
protein stability index: 0.707 ± 0.014

TGYDERSRFIEI
protein stability index: 0.68 ± 0.1

THGMFVFSPPWF
protein stability index: 0.785 ± 0.1

THHTPKILNTKR
protein stability index: 0.708 ± 0.063

THPPLTSRSSPP
protein stability index: 0.654 ± 0.044

THPPSFHPSRAP
protein stability index: 0.693 ± 0.092

THSLCIKPRTVV
protein stability index: 0.517 ± 0.0056

THSTLRRFSGYS
protein stability index: 0.7005 ± 0.001

TIIEHYMMINEK
protein stability index: 0.692 ± 0.064

TILPWCLFLVAD
protein stability index: 0.6 ± 0.0098

TISRIQTNINKK
protein stability index: 0.742 ± 0.18

TKEFKKTNTTGY
protein stability index: 0.7406 ± 0.0039

TKFKPKILEKCT
protein stability index: 0.686 ± 0.021

TKIKETTKKKQL
protein stability index: 0.522 ± 0.059

TKKKKKEKGDST
protein stability index: 0.702 ± 0.1

TKQKKIEDEEII
protein stability index: 0.6314 ± 0.0017

TKSQGGLTWASC
protein stability index: 0.626 ± 0.011

TLAKSSQNLMCV
protein stability index: 0.744 ± 0.085

TLAPPLPPPPLV
protein stability index: 0.731 ± 0.013

TLAPVRAFVEFR
protein stability index: 0.656 ± 0.022

TLCLPPPVAWQH
protein stability index: 0.6544 ± 0.0047

TLDNEKKKKRNT
protein stability index: 0.674 ± 0.022

TLDTCVPGANTF
protein stability index: 0.7127 ± 0.001

TLGGEITYKVKT
protein stability index: 0.684 ± 0.034

TLRRYSFTKKNL
protein stability index: 0.737 ± 0.069

TLRVQNKRKSEE
protein stability index: 0.663 ± 0.028

TLSLILPQLPPL
protein stability index: 0.643 ± 0.071

TLSPGYTFPLSL
protein stability index: 0.743 ± 0.023

TLTDCRKKCGRV
protein stability index: 0.715 ± 0.097

TLTPPPSTSLPP
protein stability index: 0.645 ± 0.067

TLTSPFGSPTWD
protein stability index: 0.638 ± 0.31

TLYHWELEPRNP
protein stability index: 0.664 ± 0.013

TLYLCALPALSR
protein stability index: 0.615 ± 0.0075

TNARDPPGPTPH
protein stability index: 0.586 ± 0.06

TNFGALNFDYAC
protein stability index: 0.772 ± 0.028

TNFSRCFLFRSW
protein stability index: 0.629 ± 0.025

TNILMHGHKRSC
protein stability index: 0.676 ± 0.13

TNRIRGTARKVK
protein stability index: 0.67 ± 0.055

TNSKLTKERTEI
protein stability index: 0.699 ± 0.049

TNSVGCRIGGKQ
protein stability index: 0.646 ± 0.02

TNTRKIINMEKQ
protein stability index: 0.717 ± 0.077

TNVPVLTLMVYL
protein stability index: 0.591 ± 0.089

TPASCHQFGYQH
protein stability index: 0.695 ± 0.026

TPASPSPPPRPP
protein stability index: 0.625 ± 0.019

TPGDAVICSFYI
protein stability index: 0.642 ± 0.015

TPGGDPLAPRQS
protein stability index: 0.641 ± 0.061

TPKETGNNNMPN
protein stability index: 0.677 ± 0.09

TPMGFSRFLLSL
protein stability index: 0.553 ± 0.03

TPPFPSPLPPPS
protein stability index: 0.753 ± 0.013

TPPLCAPPLPPP
protein stability index: 0.7022 ± 0.0054

TPPPPAPPHPPP
protein stability index: 0.62 ± 0.036

TPPPPPPPLRAT
protein stability index: 0.638 ± 0.038

TPPRVYPLLRTS
protein stability index: 0.682 ± 0.016

TPPVHLPPSSFS
protein stability index: 0.744 ± 0.0023

TPQPPPHSTYRC
protein stability index: 0.702 ± 0.031

TPRPPPSSFLSL
protein stability index: 0.679 ± 0.05

TPRYVGLIKINK
protein stability index: 0.676 ± 0.03

TPSDHRRLRGSN
protein stability index: 0.689 ± 0.045

TPSLPAPGPPSP
protein stability index: 0.735 ± 0.11

TPSPHPRYRASH
protein stability index: 0.703 ± 0.026

TPSPLAILSSTC
protein stability index: 0.6888 ± 0.0047

TPWIRGRTHPGR
protein stability index: 0.705 ± 0.016

TQLNTLSTINRT
protein stability index: 0.71 ± 0.11

TQNRGLSSFRAF
protein stability index: 0.691 ± 0.035

TQVGLGSFYSLG
protein stability index: 0.697 ± 0.079

TRALPIVLAVGP
protein stability index: 0.59 ± 0.026

TRDTLNLMYKRL
protein stability index: 0.703 ± 0.046

TRDVPVTPQWGY
protein stability index: 0.671 ± 0.076

TREITDAKVGNE
protein stability index: 0.7145 ± 0.0015

TRERRQAAGGGT
protein stability index: 0.665 ± 0.055

TRGDCFAVRKAR
protein stability index: 0.702 ± 0.027

TRLTSSGVGSVP
protein stability index: 0.683 ± 0.1

TRLVRQLNNNLE
protein stability index: 0.667 ± 0.013

TRNRKEWKIVIL
protein stability index: 0.594 ± 0.042

TRNTNYNKKIKV
protein stability index: 0.6801 ± 0.0022

TRPCFSGFNSPF
protein stability index: 0.6545 ± 0.0019

TRPSPHRPSAST
protein stability index: 0.678 ± 0.054

TRSRAQTEAHRR
protein stability index: 0.669 ± 0.032

TRTTTQKNNATT
protein stability index: 0.717 ± 0.037

TSHSSSGQAGKI
protein stability index: 0.73 ± 0.033

TSIDVLKCVYIQ
protein stability index: 0.5549 ± 0.0054

TSKGLGSRSAHP
protein stability index: 0.665 ± 0.044

TSLALAFTFAIP
protein stability index: 0.703 ± 0.051

TSPPHLPASSHS
protein stability index: 0.689 ± 0.014

TSQHLQNHYKKI
protein stability index: 0.701 ± 0.0035

TSRCQIGIALGG
protein stability index: 0.695 ± 0.12

TSRGGFCLGGVF
protein stability index: 0.729 ± 0.018

TSRLPPSPPPPP
protein stability index: 0.696 ± 0.14

TSRSPLCTETIP
protein stability index: 0.736 ± 0.0074

TSTGARTMFNPV
protein stability index: 0.646 ± 0.061

TSVVLPGPAVSR
protein stability index: 0.732 ± 0.049

TSWTTVYSSLLT
protein stability index: 0.672 ± 0.088

TTACLLERFTRV
protein stability index: 0.664 ± 0.028

TTDKNEAHVYSR
protein stability index: 0.6931 ± 0.00098

TTGGRGARVGGR
protein stability index: 0.755 ± 0.08

TTILCVARHIPH
protein stability index: 0.759 ± 0.089

TTLFLPAGYACR
protein stability index: 0.707 ± 0.037

TTPKLQPAPAVP
protein stability index: 0.691 ± 0.059

TTRKMGTRAPSL
protein stability index: 0.647 ± 0.095

TTRPTRGRPSSG
protein stability index: 0.682 ± 0.058
